{"source": "paper PMC5337525", "origin": "cited, not measured here", "target": "calmodulin (UniProt P0DP23)"}
{"substance": "β-arrestin 1 (from UniProt P17870)", "values": [{"measurement": "Kd", "value": 7, "unit": "µM"}]}
